In this data set the test system is GST-PTB (polypyrimidine tract binding protein). Briefly: EMSA. Conditions: EMSA: 85 nM RNA, 50 mM HEPES pH 7.6, 25 mM KCl, 2.5 mM MgCl2, 1 mM DTT, 4% glycerol, 0.67 ug/ul yeast tRNA, 10 min at 30 C; 4% native gel with 5% glycerol. In general terms: In EMSA bound probe runs differently from free probe, usually more slowly.

FCV gRNA 1-202 WT showed a binding signal (relative to 1-245) of 1. FCV gRNA 1-245 registered a binding signal (relative affinity (reference)) of 1.
